{
  "source": "patent US20160263155A1",
  "about": "“T CELL RECEPTORS DIRECTED AGAINST THE PREFERENTIALLY EXPRESSED ANTIGEN OF MELANOMA AND USES THEREOF” (LEIDEN UNIVERSITY MEDICAL CENTER, priority 2015, published 2016)",
  "data": [
    {"biological_target": "T1, PRAME peptide on HLA-A*02:01 (human)", "T1 peptide": "SLLQHLIGL", "assay": "multimer staining", "conditions": "not given", "values": [
      {"molecule": "AAV54 SLL (TCR, V domains shown) Valpha: AQSVTQLGSHVSVSERALVLLRCNYSSSVPPYLFWYVQYPNQGLQLLLKYTSAATLVKGINGFEAEFKKSETSFHLTKPSAHMSDAAEYFCAVSGQTGANNLFFGTGTRLTVIP Vbeta: DSGVTQTPKHLITATGQRVTLRCSPRSGDLSVYWYQQSLDQGLQFLIQYYNGEERAKGNILERFSAQQFPDLHSELNLSSLELGDSALYFCASARWDRGGEQYFGPGTRLTVT", "binding result": "recognises"},
      {"molecule": "AAV46 SLL (TCR, V domains shown) Valpha: GQQLNQSPQSMFIQEGEDVSMNCTSSSIFNTWLWYKQDPGEGPVLLIALYKAGELTSNGRLTAQFGITRKDSFLNISASIPSDVGIYFCAGIPRDNYGQNFVFGPGTRLSVLP Vbeta: DVKVTQSSRYLVKRTGEKVFLECVQDMDHENMFWYRQDPGLGLRLIYFSYDVKMKEKGDIPEGYSVSREKKERFSLILESASTNQTSMYLCASTPWLAGGNEQFFGPGTRLTVL", "binding result": "recognises"}
    ]},
    {"test_system": "chimeric Caspase-9 polypeptide", "sequence (as listed by the source, stated change not applied)": "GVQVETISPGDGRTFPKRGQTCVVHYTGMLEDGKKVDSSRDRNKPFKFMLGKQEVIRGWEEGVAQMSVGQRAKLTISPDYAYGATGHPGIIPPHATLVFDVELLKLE", "assay": "Caspase mutant classes and basal activity (Table 3)", "type": "cell-based, human", "conditions": "class heading of Table 3", "values": [
      {"molecule": "G402Y (protein) GFGDVGALESLRGNADLAYILSMEPCGHCLIINNVNFCRESGLRTRTGSNIDCEKLRRRFSSLHFMVEVKGDLTAKKMVLALLELAQQDHGALDCCVVVILSHGCQASHLQFPGAVYGTDGCPVSVEKIVNIFNGTSCPSLGGKPKLFFIQACGGEQKDHGFEVASTSPEDESPGSNPEPDATPFQEGLRTFDQLDAISSLPTPSDIFVSYSTFPGFVSWRDPKSGSWYVETLDDIFEQWAHSEDLQSLLLRVANAVSVKGIYKQMPYCFNFLRKKLFFKTS", "Basal Activity": "dead"},
      {"molecule": "S144A (protein) GFGDVGALEALRGNADLAYILSMEPCGHCLIINNVNFCRESGLRTRTGSNIDCEKLRRRFSSLHFMVEVKGDLTAKKMVLALLELAQQDHGALDCCVVVILSHGCQASHLQFPGAVYGTDGCPVSVEKIVNIFNGTSCPSLGGKPKLFFIQACGGEQKDHGFEVASTSPEDESPGSNPEPDATPFQEGLRTFDQLDAISSLPTPSDIFVSYSTFPGFVSWRDPKSGSWYVETLDDIFEQWAHSEDLQSLLLRVANAVSVKGIYKQMPGCFNFLRKKLFFKTS", "Basal Activity": "Decreased"},
      {"molecule": "C403P (protein) GFGDVGALESLRGNADLAYILSMEPCGHCLIINNVNFCRESGLRTRTGSNIDCEKLRRRFSSLHFMVEVKGDLTAKKMVLALLELAQQDHGALDCCVVVILSHGCQASHLQFPGAVYGTDGCPVSVEKIVNIFNGTSCPSLGGKPKLFFIQACGGEQKDHGFEVASTSPEDESPGSNPEPDATPFQEGLRTFDQLDAISSLPTPSDIFVSYSTFPGFVSWRDPKSGSWYVETLDDIFEQWAHSEDLQSLLLRVANAVSVKGIYKQMPGPFNFLRKKLFFKTS", "Basal Activity": "dead"},
      {"molecule": "T317S (protein) GFGDVGALESLRGNADLAYILSMEPCGHCLIINNVNFCRESGLRTRTGSNIDCEKLRRRFSSLHFMVEVKGDLTAKKMVLALLELAQQDHGALDCCVVVILSHGCQASHLQFPGAVYGTDGCPVSVEKIVNIFNGTSCPSLGGKPKLFFIQACGGEQKDHGFEVASTSPEDESPGSNPEPDASPFQEGLRTFDQLDAISSLPTPSDIFVSYSTFPGFVSWRDPKSGSWYVETLDDIFEQWAHSEDLQSLLLRVANAVSVKGIYKQMPGCFNFLRKKLFFKTS", "Basal Activity": "Decreased"},
      {"molecule": "S196D (protein) GFGDVGALESLRGNADLAYILSMEPCGHCLIINNVNFCRESGLRTRTGSNIDCEKLRRRFSDLHFMVEVKGDLTAKKMVLALLELAQQDHGALDCCVVVILSHGCQASHLQFPGAVYGTDGCPVSVEKIVNIFNGTSCPSLGGKPKLFFIQACGGEQKDHGFEVASTSPEDESPGSNPEPDATPFQEGLRTFDQLDAISSLPTPSDIFVSYSTFPGFVSWRDPKSGSWYVETLDDIFEQWAHSEDLQSLLLRVANAVSVKGIYKQMPGCFNFLRKKLFFKTS", "Basal Activity": "Decreased"},
      {"molecule": "S144D (protein) GFGDVGALEDLRGNADLAYILSMEPCGHCLIINNVNFCRESGLRTRTGSNIDCEKLRRRFSSLHFMVEVKGDLTAKKMVLALLELAQQDHGALDCCVVVILSHGCQASHLQFPGAVYGTDGCPVSVEKIVNIFNGTSCPSLGGKPKLFFIQACGGEQKDHGFEVASTSPEDESPGSNPEPDATPFQEGLRTFDQLDAISSLPTPSDIFVSYSTFPGFVSWRDPKSGSWYVETLDDIFEQWAHSEDLQSLLLRVANAVSVKGIYKQMPGCFNFLRKKLFFKTS", "Basal Activity": "Decreased"}
    ]}
  ]
}
